Paper PMC6652007, “Metabolic engineering of Clostridium thermocellum for n-butanol production from cellulose” (Biotechnology for Biofuels, 2019)

Legend:
[1] = test system: CC(O)CC(=O)SCCNC(=O)CCNC(=O)[C@H](O)C(C)(C)COP(=O)(O)OP(=O)(O)OC[C@H]1O[C@@H](n2cnc3c(N)ncnc32)[C@H](O)[C@@H]1OP(=O)(O)O; assay: purified protein; settings: 0.3 mM NADH, coupled with Ter, 100 mM MOPS-KOH pH 7.5, 55 °C
[2] = test system: T1, NC(=O)C1=CN([C@@H]2O[C@H](COP(=O)(O)OP(=O)(O)OC[C@H]3O[C@@H](n4cnc5c(N)ncnc54)[C@H](O)[C@@H]3O)[C@@H](O)[C@H]2O)C=CC1; assay: NAD(P)H oxidation, A340; type: biochemical, Thermoanaerobacterium thermosaccharolyticum; settings: acetoacetyl-CoA as substrate, 100 mM MOPS-KOH pH 7.5, 55 °C, varied: cofactor
T1 construct: His-tagged (vector pD861-CH), codon-optimised, expressed in E. coli BL21(DE3)
Description: (§1) NAD(P)H oxidation, A340 on Tt_Hbd

[3] = test system: T2, NC(=O)C1=CN([C@@H]2O[C@H](COP(=O)(O)OP(=O)(O)OC[C@H]3O[C@@H](n4cnc5c(N)ncnc54)[C@H](OP(=O)(O)O)[C@@H]3O)[C@@H](O)[C@H]2O)C=CC1; assay: NAD(P)H oxidation, A340; type: biochemical, Thermoanaerobacterium thermosaccharolyticum; settings: acetoacetyl-CoA as substrate, 100 mM MOPS-KOH pH 7.5, 55 °C, varied: cofactor
T2 construct: His-tagged (vector pD861-CH), codon-optimised, expressed in E. coli BL21(DE3)
Description: as §1

[4] = test system: T3, CC(=O)CC(=O)SCCNC(=O)CCNC(=O)[C@H](O)C(C)(C)COP(=O)(O)OP(=O)(O)OC[C@H]1O[C@@H](n2cnc3c(N)ncnc32)[C@H](O)[C@@H]1OP(=O)(O)O; assay: NADH oxidation, A340; type: biochemical, Thermoanaerobacterium thermosaccharolyticum; settings: 0.3 mM NADH, 100 mM MOPS-KOH pH 7.5, 55 °C
T3 construct: His-tagged (vector pD861-CH), codon-optimised, expressed in E. coli BL21(DE3)
Description: NADH oxidation, A340 on Tt_Hbd

Chain of Tt_Hbd (Thermoanaerobacterium thermosaccharolyticum DSM 571; D31A) (chain, as listed by the source D31A): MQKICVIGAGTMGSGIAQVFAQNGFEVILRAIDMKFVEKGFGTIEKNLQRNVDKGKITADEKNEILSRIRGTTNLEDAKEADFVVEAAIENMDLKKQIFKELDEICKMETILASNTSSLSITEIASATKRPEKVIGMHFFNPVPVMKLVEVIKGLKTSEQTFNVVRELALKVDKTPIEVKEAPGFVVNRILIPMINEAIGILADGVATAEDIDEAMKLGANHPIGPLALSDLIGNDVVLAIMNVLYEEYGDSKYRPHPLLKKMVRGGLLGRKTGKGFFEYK
Chain of Tt_Hbd (Thermoanaerobacterium thermosaccharolyticum DSM 571) (chain, as listed by the source): as the sequence (chain, as listed by the source D31A) above, with A31D counted along it

| Substance | Km [1] | Km [2] | Vmax [2] | Km [3] | Vmax [3] | Km [4] |
| --- | --- | --- | --- | --- | --- | --- |
| Tt_Crt (Thermoanaerobacterium thermosaccharolyticum DSM 571) | 600 ± 100 µM | – | – | – | – | – |
| Tt_Hbd (Thermoanaerobacterium thermosaccharolyticum DSM 571; D31A) | – | 60 ± 20 µM | 38.5 µmol/min/mg | 30 ± 10 µM | 485 µmol/min/mg | – |
| Tt_Hbd (Thermoanaerobacterium thermosaccharolyticum DSM 571) | – | 50 ± 20 µM | 61.4 µmol/min/mg | 1100 ± 200 µM | 15.2 µmol/min/mg | 30 ± 10 µM |
